Measured values reported in PMC8563793, “C-Glycoside metabolism in the gut and in nature: Identification, characterization, structural analyses and distribution of C-C bond-cleaving enzymes” (Nature Communications, 2021).

Legend:
[1] = target: EuCGD (DfgA-B complex) ([Eubacterium] cellulosolvens, UniProt I5AX49+I5AX50); experiment: steady-state kinetics, HPLC of aglycone; settings: 30 °C, 2 min, 2 μM enzyme; enzymatically prepared substrate
[2] = substrate: Cc1c(C(=O)O)c(O)cc2c1C(=O)c1c(O)c([C@@H]3O[C@H](CO)[C@@H](O)C(=O)[C@H]3O)c(O)c(O)c1C2=O; experiment: purified protein; settings: 30 °C, 30 min, 2 μM enzyme, enzymatically prepared substrate
[3] = substrate: O=C1[C@@H](O)[C@H](c2c(O)cc3oc(-c4ccc(O)cc4)cc(=O)c3c2O)O[C@H](CO)[C@H]1O; experiment: steady-state kinetics, HPLC of aglycone; type: biochemical, Microbacterium trichothecenolyticum; settings: 30 °C, 30 min, 2 μM enzyme, enzymatically prepared substrate
[4] = substrate: O=C1[C@@H](O)[C@H](c2c(O)cc3oc(-c4ccc(O)c(O)c4)cc(=O)c3c2O)O[C@H](CO)[C@H]1O; experiment: steady-state kinetics, HPLC of aglycone; type: biochemical, Microbacterium trichothecenolyticum; settings: 30 °C, 30 min, 2 μM enzyme, enzymatically prepared substrate
[5] = substrate: O=C1[C@@H](O)[C@H](c2c(O)cc3oc4cc(O)c(O)cc4c(=O)c3c2O)O[C@H](CO)[C@H]1O; experiment: steady-state kinetics, HPLC of aglycone; type: biochemical, Microbacterium trichothecenolyticum; settings: 30 °C, 30 min, 2 μM enzyme, enzymatically prepared substrate
[6] = substrate: O=C1[C@@H](O)[C@H](c2c(O)cc3oc(-c4ccc(O)cc4)cc(=O)c3c2O)O[C@H](CO)[C@H]1O; experiment: purified protein; settings: 30 °C, 2 μM enzyme, enzymatically prepared substrate
[7] = substrate: O=C1[C@@H](O)[C@H](c2c(O)cc3oc(-c4ccc(O)c(O)c4)cc(=O)c3c2O)O[C@H](CO)[C@H]1O; experiment: purified protein; settings: 30 °C, 2 μM enzyme, enzymatically prepared substrate
[8] = substrate: O=C1[C@@H](O)[C@H](c2c(O)cc(O)c3c(=O)cc(-c4ccc(O)c(O)c4)oc23)O[C@H](CO)[C@H]1O; experiment: purified protein; settings: 30 °C, 30 min, 2 μM enzyme, enzymatically prepared substrate
[9] = substrate: O=C1[C@@H](O)[C@H](c2c(O)cc3oc4cc(O)c(O)cc4c(=O)c3c2O)O[C@H](CO)[C@H]1O; experiment: purified protein; settings: 30 °C, 30 min, 2 μM enzyme, enzymatically prepared substrate
[10] = substrate: O=C1[C@@H](O)[C@H](c2c(O)ccc3c(=O)c(-c4ccc(O)cc4)coc23)O[C@H](CO)[C@H]1O; experiment: steady-state kinetics, HPLC of aglycone; type: biochemical, human intestinal bacterium PUE; settings: 30 °C, 2 min, 2 μM enzyme, enzymatically prepared substrate
[11] = substrate: O=C1[C@@H](O)[C@H](c2c(O)cc(O)c3c(=O)cc(-c4ccc(O)c(O)c4)oc23)O[C@H](CO)[C@H]1O; experiment: steady-state kinetics, HPLC of aglycone; type: biochemical, human intestinal bacterium PUE; settings: 30 °C, 90 min, 5 μM enzyme, enzymatically prepared substrate

O=C1[C@@H](O)[C@H](c2c(O)cc3oc4cc(O)c(O)cc4c(=O)c3c2O)O[C@H](CO)[C@H]1O [compound 5, 3’-oxo-mangiferin]
Km [1]: > 5 mM

B1: MiCGD (CarB-C complex) (Microbacterium sp.) (protein)
chain 1: MTALALPRLGVTLYSFTPYYHAREYSFEDLIRIAGERDLGPGLEIVGYQSIKGFPKLPDGFVKDFRRRVDEAGLELSAMGANADAGIPHDRLLNEDELTEYMAHQLHTAKELGFPIVRVQHSVTPDLMERLLPLAEKLDLTMGMEIHSPHSVHHPKIQALVERYEKLGSPHLGFIPDWGASLTRLPPSALQTYAAADVPRELLDAYDRQWDVFHAEGVITTDAEQGAQFRRMRELNERFGGDDVSVRIGTNAVGLFGHQRPEDWSAIMPWVVHVHGKFYGIDENGEEPSVPHGLLLRQLVDAGYTGYISSEWEGWHWNTTDDPFEMVAWQHRLMRRIFGEIEAEAGVR
chain 2: MFRERIIVQDSLVADESGSAFRIRLPWYRALPLSTIEELSVTVDGTAFDPARLRIAVNDGEWALAEAQLRTDDVWFVLDDATVRLPGLVLDAGAHEVQATLSMRIPYLPVAGKPLSMAETDQKRMDVKELTA
Km [2]: 0.39 mM

B2: MtCGD (Microbacterium trichothecenolyticum) (protein)
chain 1: MTALGTPIQGVTLYSFTRAFHGREYDLEGLIRKTAADGFGPGLEIIGFSSFRGFPAIDDAYAGWFRDLIDEVGLVTTSLAVNADIGIHRDRLLNQDELIEYMTLQIKAAAKLGFPIARVQISIEPDSMEALAPIAEAHGVTLALEVHADQYASHPRILALRDRYEKVGSPFLGFTMDWGATVSGFAPSLIEAYRRRGASEELLGQVVDLWNTYYEQGPPADQADHGQRFGSFIGLAARHGRPDLGIDFGINGTGLFGPARVDDWRTIAPWIKHVHGKFFGIDENGEEPSVPVRDLVKLLVENGYNGAISSEYEGWHWNYWQSPFDIISDEQAVQRSAAEAAGSRMITDLAEARTQLGAWLPNTEGAHA
chain 2: MIPDRIIEQGTLRTDGPRAAVEVRLPWYRALPGSCIAGAELTIDGKTAPAESLRWEMNGAEFTFDELRTNIDEWWFPTDSAVLSGDLDIEADAEHEVTVGLTLYIPYIIISDTETLHIDEKNTKTMKAVAA
Km [3]: 8.2 ± 1.8 mM
kcat [3]: 0.533 ± 0.083 s⁻¹
kcat [4]: 0.35 ± 0.033 s⁻¹
Km [5]: 6.1 ± 1.4 mM
kcat [5]: 0.01 ± 0.0012 s⁻¹

B3: EuCGD (DfgA-B complex) ([Eubacterium] cellulosolvens 6) (protein)
chain 1: MYRYEKKGPKRGVALYSYSAEFGLTKTLEDCFEDLHDMGAHGIEILANTHIENYPYPTDEWVEKWWRLCDKYEIVPVEYGNWIDSHVLGDRDLTTEESVEMLKRDIRLAHRLGFTVMRTKMPVINDLLEPVENWKEIIKGALPLAEELGIKMCPEIHTPSNLKGKLVNDFVEFIKETGTKNFGLNIDFSVFRTSFAEGEWVDPNYTPNKPEDIIPLLPYVYCCHAKFIHMSDDFKETTIPYEEVVKTMEDNGYEGYLLSEYEGADKYDEGYEVGQTLRKHHILLKNLLGD
chain 2: MEKQVIQSVGFRNIKNGNGEITGFQFKVKLPYYRGVFLSQIRPGTLFVDGQKIEKDQITWTINGEEYTNQEMRGDFKTHWATTKPAVLKVKMPGGLAQGYHDLKYGFCFTSSYMPPIIQDGLDPDKESMVYMPEFGHHVNERRLLIV
Km ([6]; 2 min): 3.6 mM
kcat ([6]; 2 min): 0.003 s⁻¹
Km ([7]; 2 min): 11 mM
kcat ([7]; 2 min): 0.0045 s⁻¹

B4: AgCGD2 (Arthrobacter globiformis NBRC 12137) (protein)
chain 1: MSEGIAGSGIELGITLYSLTSEFAAGLYTPETLIKAVADEGLGPGVEFNIAQMLRTYPDVDDDFVKLWRDSMDRYGLTPSAVGTNLDMGRRKDRDMTPDEEYDFFAAQLRTANKLGFHRVVIRSAGKELLRRLLPLAEKYDQKLGYEIHAPQGPNDPKILQIREMYAELGSDRLGFTADFSSTMHSLSPTLFRTLTQMGLPEEHFAVMQDIWRKPLPMQERNQEFEDYLRANNFDPAQLGPFTRLAFNMHGLVPPEEWLDIMPQIFHVHAKFYDIDENGNEPAMDIPRIVRQFVKGGYRGYLSSEWEGHAFADLGESDPIDLVKKQHSLMRRAIEEAVDPTVSQPALVETAK
chain 2: MATHNSLFQDSDVRKHPEGIAVSVQLPWYRSLWLSAVDDVAATVNGVKIPRESLRFELQGQTYSIAELPEQWETLWFVADKPDVVIPLDRIPDAGEEIDVEVILTLRLLYMQIAPMRYVGNRVAVERKVVLA
kcat [8]: 0.667 ± 0.083 s⁻¹

B5: AgCGD1 (Arthrobacter globiformis NBRC 12137) (protein)
chain 1: MTSLGTPIQGVTLYSFTRAFHARQYDLDGLIRKVAAEGFGPGLELIGFSSLRGFPDGIDDAFVGQFRDLVAEVDLIPTSLAVNVDTGIRRDRLMNHDELVEYMSKQIEVAARLGFPIARVQISLTPDAMESLLPVAEKYGVTLALEVHADQHGAHERVLALRDRYEKLDSPLLGFTADWGATVTGFAPSLLEAYRRRGAAEDLLRQVVELWNGFYAEGPPNTQKVHGERFGAFIGLAARSGRPDLGIDFAINGTGLFGPAPLDTWLEIMPWVRHVHGKFFGIDENGEEPSVPVRDLVRQLVENGYSGAISSEYEGWHWNNWQDPFDIIRGEQAVQRSAAANAGSAMITDASEARRILNSHLAQPVRG
chain 2: MIADRIIEHGTLITRDGRAAVEVRIPWYRALPGSCIAGAALTVDGVAAPEDTLRWTMNNRTFSFEELVDETGEWWFPLDSAVLSGDLPVWDDQAEHEVRVDLKLCIPYIITDHGVLHIEEHDTKTMKVAQQ
Km ([6]; 30 min): 3.5 ± 0.4 mM
kcat ([6]; 30 min): 0.0767 ± 0.0033 s⁻¹
Km ([7]; 30 min): 3.4 ± 0.3 mM
kcat ([7]; 30 min): 0.0095 ± 0.00033 s⁻¹
Km [9]: 3.7 ± 0.5 mM
kcat [9]: 0.00283 ± 0.00017 s⁻¹

B6: PuCGD (DgpB-C complex) (human intestinal bacterium PUE) (protein)
chain 1: MSNVKLGVTLYSFSTEYCQGKMTLEDCIRTAKELGAAGFEIVATQMIPSYPYVSDKFLGELKSICQYYDMEPVCYGANCDRGLRGDRNLTGDEMVAMAVRDIKNAHKMGCKVVREQWLMGPENFAKLAPFAEHYGVKVGIEVHNPETPITQSTKDYIAAIDKTGSKYLGLIPDFGCFANKPNKMNWDNALADGADKKLLEMARDMKYDNVPYDEAVKRLTAAGAKKVELTTMRDMYTFLTFKKDVSAELQGLKDMIPYCIHMHGKYHYMYENLQEAAIPYDDIMKIVSESDYDGYIVSEYEEYNSGHSIEMLRRHLKMMHNFVD
chain 2: MGLALRLNFVDVVCDDSLKNFWANGKKIGYQFDVRLSYYRGHFLSTIDEIGVKVDGVDVPAENISLCLDGKEYGVAELHDLVNVFWPIIEPATIKVFQPGGLSEEEHDVDFTLYFRSPYMALSETEYQSIDSCGSKRLNVQN
Km [10]: 12 mM
kcat [10]: 0.00683 s⁻¹
Km [11]: 0.79 mM
